Source: a protein production outcome set (Wang et al. 2014)

assay: label from the status in PepcDB records
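Further: failed if final PepcDB status was selected cloned or expressed and not failed if soluble or beyond.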

Protein production, not failed:
VGDHDSHEVMQRLDALLPTLRERAQETEDLRRIPDDSMKALQETGFFRLLQPEQWGGYQADPVLFYSAVRKIASACGSTGWVSSIIGVHNWHLALFSQQAQEDVWGNDTDVRISSSYAPMGAGQVVDGGYTVNGAWAWSSGCDHASWAVLGGPVIKDGRPVDFVSFLIPREDYRIDDVWNVVGLRGTGSNTVVVEDVFVPTHRVLSFKAMSNLTAPGLERNTAPVYKMPWGTIHPTTISAPIVGMAYGAYDAHVEHQGKRVRAAFAGEKAKDDPFAKVRIAEASSDIDAAWRQLSGNVADEYALLVAGEEVPFELRLRARRDQVRATGRAISSIDKLFESSGATALANGTPLQRFWRDAHAGRVHAANDPERAYVMYGTGEFGLPITDTMV, VGKLKIYFGFAAGVGKTYAMLSDAKDQLAAGVDVVAGYIEPHAREETLRMLEGIPIIPPKAINHKNIALKEFDLDEALKRKPELILVDELAHTNASGVRNKKRFQDVEELLQAGIDVYTTVNVQHIESLNDIVEGITKVAVRETIPDYVFDEADRVKLIDIEPDELLKRLEQGKIYQPARAKTAMQNFFTRENLKLLREIAMRKAADRISHEYDQTGIYPE, VHVEDALTYLDQVKIRFGSDPATYNGFLEIMKEFKSQSIDTPGVIRRVSQLFHEHPDLIVGFNAFLP, VIKKEGPGWRIIFDSSRDNFSTLIGGETWAIELDKSEWKILVEVVMELCDQYKLVKEQLMGDEDITLELERRPWLAILNGDQYGWNLRLILSASGLFNRGAEVYWPRHVTNNVVNAMRSMWDSDYL, VISSDVIRGYVDTIILSLLIEGDSYGYEISKNIRIKTDELYVIKETTLYSAFARLEKNGYIKSYYGEETQGKRRTYYRITPEGIKYYKQKCEEWELTKKVINKFVKELESNGDN, VKFLTVNDDILSMPQARNFCASAGGYLADDLGDDKNNFYSSIAANTQFWIGLFKNSDGQFYWDRGQGINPDLLNQPITYWANGEPSNDPTRQCVYFDGRSGDKSKVWTTDTCATPRPFICQKHRYDSDHKPNTIGDA, VLAEYASRIVSAEEAVKHIKNGERVALSHAAGVPQSCVDALVQQADLFQNVEIYHMLCLGEGKYMAPEMAPHFRHITNFVGGNSRKAVEENRADFIPVFFYEVPSMIRKDILHIDVAIVQLSMPDENGYCSFGVSCDYSKPAAESAHLVIGEINRQMPYVHGDNLIHISKLDYIVMADYPIYSLAKPKIGEVEEAIGRNCAELIEDGATLQLGIGAIPDAALLFLKDKKDLGIHTEMFSDGVVELVRSGVITGKKKTLHPGKMVATFLMGSEDVYHFIDKNPDVELYPVDYVNDPRVIAQNDNMVSINSCIEIDLMGQVVSECIGSKQFSGTGGQVDYVRGAAWSKNGKSIMAIPSTAKNGTASRIVPIIAEGAAVTTLRNEVDYVVTEYGIAQLKGKSLRQRAEALIAIAHPDFREELTKHLRKRFG, VMEIEARLEDVRQRIADVAEKSGRKAADVALVAVSKTFDAEAIQPVIDAGQRVFGENRVQEAQGKWPALKEKTSDIELHLIGPLQSNKAADAVALFDVVESIDREKIARALSEECARQGRSLRFYVQVNTGLEPQKAGIDPRETVAFVAFCRDELKLPVEGLMCIPPAEENPGPHFALLAKLAGQCGLEKLSMGMSGDFETAVEFGATSVRVGSAIFGSR, VNSVAARVTELTGREVAAVAERGHSHRWHLYRVELADGTPLFVKALPDDAPALDGLFRAEALGLDWLGRSFGSPVPQVAGWDDRTLAMEWVDERPPTPEAAERFGHQLAAMHLAGAESFGATWDGYIGPLPMDNTPRSTWPEFYAEQRILPYLRRAADRGALTPGDVRLVEKVLDALDHLAGDPEPPARIHGDLWNGNVLWQDDGAVVIDPAAHGGHREADLAMLALFGLPYLDRVRDAYNEVAPLAEGWRARIPLHQLHPLLVHVCLFGAAYRTTLVDTARAALRA, VQTPALIIVTGHPATGKTTLSQALATGLRLPLLSKDAFKEVMFDGLGWSDREWSRRVGATAIMMLYHTAATILQSGQSLIMESNFRVDLDTERMQNLHTIAPFTPIQIRCVASGDVLVERILSRIAQGARHPGHCDDRSPADLELVRSRGDIPPLPLGGPLLTVDTTFPEQIDMNAIVQWVRQHLQSGTAFL, VSDRPAGRMPLTVHRNVGRWLSEILHASIRDTGVSSRIEFVRRTLHGWVREEYSETELPNAVYRNLYFPVLDAQPAHAGSGKIETISECDRLKNLVRNVTDTLVENYPQGLESEALLIALDGVKLELARIRKDIEMYGDPRKR, VSIPANNSPVRLALIGAGRWGKNYIRTIAGLPGAALVRLASSNPDNLALVPPGCVIESDWRSVVSAPEVEAVIIATPPATHAEITLAAIASGKAVLVEKPLTLDLAEAEAVAAAAKATGVMVWVEHTQLFNPAWEALKADLTSIGPILAVRSEAGNHGPYRPGGVPMLWDWGAHDVSMVLDLMGRDPDSTSASWAARGEKDGGEAGDVTLTLAFSTVEAHIRLCNTMDKCRRLAVFGEAGTLVMDDRATDKLTLHPPQPDGNWPVGQGHALTVTDEMPLTRAVRLFAGAVRQPEPGPSPLELGLRVVRVLGACS

Protein production, failed:
VGPHAALMDATYRHQRRIYDITRRHFLLGRDELIAALAPPPGARVLEIACGTGRNLDLIDRRWPGLRLYGLDISEEMLRTARARLGTRARLAQGDATDFDARALFGAARFERIVISYALSMIPDWRPALAHAASLLSKEGELHVVDFGDQAGLPRWFRTGLRGWIGRFHVEPRDDLGAALAEVAAGVG, VLWISSSPVLQRFDKPLLQYISKDVNVAQWEYRHHRDEGSSIDEAVDLLAEFMGQCPYPVNLAGHAAGGAIALSFARRYPKKVRSLSLLAVASQPANTWHAHYYLQRQLFTISREQILANTVRNLFGEQPSHTTKKLVAVLDRDLEQSPLLHSLFKLVHLPEGGVNMPLMICGSKNDPIVSSTTLQDWSNCLKPEDHLWECPKGHHFFHYFYPQTVGDQLLNFWQ, VPPPGTMVMVERKVGSWVDGQPIDLQRDWRSWEQLPDSLKVAVIAGEDQHFAEHHGFDLPAIQQALAHNERGGSIRGASTLSQQVAKNVFLWSGRSWLRKGLEAWFTLLIETLWTKQRILEVYLNSAEWGPGVFGAQAAARYHFGLDAERLSRTQASQLAAVLPSPLKWSAARPGPYVRQRAAWIRQQMWQLGGDDYLLRLER, VQIKNATAIVTGASSGIGLAFASLLAQKGYNLLLIARNINKLNDLAKTLSTQYDTQCNVLSIDLSEENASKKVLEYIITNNLNISVLINNAGFSGNYKFLEADWSQLSKELNVMSIAVTELCYLIAPLMEKNSWGRIINVSSGAAYLPPTQSLLYTGLKSYVLNFSQSLDMELKPKGINVTALCPGFTRSEFHNTMGTNKQVSKVPNFLWQAPDQVA, VRPDGRGKVTGELKYMTDLSFPGMLYGKVLRSAYPHAEIVSVCTIKAEKMEGVQAVVTHKDVPGLNRFGIVIPDQPVLCEDRVRYVGDAIAAVAAETEEIAEAALELIQVEYKELEVMDSPEKALRPNAQRLHEDGNILHRAFFSNGDVEEGFQASDTVFEETYELPRQMHTYMETEGGVAVPEDDGGFTMYAGTQHGYKDRFQLARIFDIPEEKIRIVSSPMGGSFGGKDELNIQPYAALLALKSGRPVKIHQTRKESVRSGIKRHPMKITIKTGADHSGNLLAHDVKIVADTGAYATLGPAVLDFSVEHAAGPYRIPNIRTEGISVFTNNGVAGEFRGFGGNQITFALETHLDRLSGMLGIDPLELRRKNIRKPHDLGPLEHRIAPTDGAAQVLNAISKSPILKKTSRNCGYLQRGTGAAITMHGGGLGFGRMDAAGGRLSLSSEGKITASFGFEECGQGILAAIEQIVMEELGCAAEDISIVIGDTAKVPKSGSSTASRGTSMVWHAIQRLKKPFLAQLKKRAAEWSGCSAENLIPGAAGLRDKNTKALVVTYKELAEKGPLAEETAFDFPTTPDPVVGGHFLYSFGAAAVEVEVDLLTGDVKLIDCEHAIAAGPVVSPQGYRGQIEGGAAMALGYTLMEEAKMTDGRYAAENLDHYLIPGIKDVPDMKLIAIEDLMKGDVYGPRGVGEIGTIAITPAIVKAVHDAVGCWINKLPISREELLEAIDRKGL, VRPGDTEIDKLVALIDAADKVTLFCGSGTAGAHAEVMEFAEKIKSPVGHALRGKEWIQYDNPYDVGMSGLLGYGAAYEATNECDLLILLGTDFPYNAFLPTDVKIAQVDVRPERLGRRSKLDLAVWGDVRETLRCLIPRVKPKENRRFLDKMLKKHADALEGVIKAYTRKVEK
